Test results as given in PMC2650222 (Biochemistry, 2008).

Molecular target: T1, Pyrococcus furiosus RPP29 (Pyrococcus furiosus, UniProt Q8U007 1-127)
T1 sequence (looked up): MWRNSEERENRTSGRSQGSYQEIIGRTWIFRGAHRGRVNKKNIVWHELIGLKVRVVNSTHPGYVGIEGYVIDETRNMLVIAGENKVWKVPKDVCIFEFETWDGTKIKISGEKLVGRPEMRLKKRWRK
Experiment: NMR titration

B1: Pyrococcus furiosus RPP21 (natural protein)
chain: AKYNEKKEKKRIAKERIDILFSLAERVFPYSPELAKRYVELALLVQQKAKVKIPRKWKRRYCKKCHAFLVPGINARVRLRQKRMPHIVVKCLECGHIMRYPYIKEIKKRRKEKMEYGGLVPR
modifications: 15N-labelled (uniform isotope labelling)
- binding result: binds
